Laboratory results reported in article PMC12780147.
pKd: −log10 of the molar value.

Columns and labels:
[1] = target: TGF-β1 (not stated (human TGF-β1 stated for the reporter assay only)); assay: BLI
CD127 (IL-7Rα) = CD127 (IL-7Rα) (UniProt P16871); assay: BLI
Chain of CD127 (IL-7Rα) (P16871 21-459): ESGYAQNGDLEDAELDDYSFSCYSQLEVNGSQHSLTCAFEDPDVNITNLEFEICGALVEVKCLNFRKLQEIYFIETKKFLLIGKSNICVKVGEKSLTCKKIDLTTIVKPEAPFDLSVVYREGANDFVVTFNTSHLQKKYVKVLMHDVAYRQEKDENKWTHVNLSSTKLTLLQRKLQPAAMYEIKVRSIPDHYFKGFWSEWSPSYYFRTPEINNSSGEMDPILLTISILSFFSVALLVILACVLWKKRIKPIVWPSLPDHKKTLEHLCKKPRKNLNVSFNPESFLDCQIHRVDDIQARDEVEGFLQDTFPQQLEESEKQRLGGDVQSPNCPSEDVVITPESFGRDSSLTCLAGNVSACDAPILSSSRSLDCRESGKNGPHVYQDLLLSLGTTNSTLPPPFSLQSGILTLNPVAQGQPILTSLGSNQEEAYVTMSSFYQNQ

rhIL-7-hyFc-sTBRII (IL7-TBRII), bifunctional fusion protein (from UniProt P13232 26-177; P37173 23-166) (Fc fusion)
pKd [1]: 9.84
pKd (CD127 (IL-7Rα)): 8.16
